What follows are binders tested against CBF-A (hnRNP A/B), p37 isoform (UniProt Q99020 1-285) (assay: EMSA).
CBF-A (hnRNP A/B), p37 isoform, sequence (Q99020 whole entry, canonical isoform): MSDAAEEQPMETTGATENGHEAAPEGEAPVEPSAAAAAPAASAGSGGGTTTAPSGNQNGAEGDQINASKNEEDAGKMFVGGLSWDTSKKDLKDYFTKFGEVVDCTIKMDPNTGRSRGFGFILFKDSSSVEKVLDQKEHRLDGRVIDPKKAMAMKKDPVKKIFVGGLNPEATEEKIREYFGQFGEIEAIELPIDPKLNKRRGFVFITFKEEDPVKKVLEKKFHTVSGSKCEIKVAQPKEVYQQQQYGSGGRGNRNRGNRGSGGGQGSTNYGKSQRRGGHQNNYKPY

Binding result, binds:
AUGGACCCAAUGAGAACUAGU (ssRNA) [BDNF wtRTS]
GCUGAGGAGGAGGAGAUCAUU (ssRNA) [Arc wtRTS]
AACGCCAGUGAGCCAGGAACU (ssRNA) [CaMKIIα wtRTS]

Reference: article PMC3103402
